# Changes are numbered by the printed parent chain.
# T1: human PAC1 receptor (human, UniProt P41586 21-468)
# T1 sequence: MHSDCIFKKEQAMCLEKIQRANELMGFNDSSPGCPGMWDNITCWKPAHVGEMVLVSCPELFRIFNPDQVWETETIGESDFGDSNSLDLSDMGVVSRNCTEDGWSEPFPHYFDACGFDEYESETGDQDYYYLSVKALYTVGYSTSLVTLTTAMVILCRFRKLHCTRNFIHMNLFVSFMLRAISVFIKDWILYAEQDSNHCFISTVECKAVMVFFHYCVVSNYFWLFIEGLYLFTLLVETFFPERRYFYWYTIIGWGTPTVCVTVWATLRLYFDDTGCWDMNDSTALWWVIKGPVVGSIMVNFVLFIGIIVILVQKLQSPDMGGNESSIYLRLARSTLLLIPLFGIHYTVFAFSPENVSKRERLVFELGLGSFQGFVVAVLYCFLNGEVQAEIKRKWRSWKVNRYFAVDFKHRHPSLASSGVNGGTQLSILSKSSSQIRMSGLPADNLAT
# B1: iPS:326645 (bispecific antibody, human IgG2, kappa, lambda)
# light 1: not shown
# heavy 1: QVQLQESGPGLVKPSQTLSLTCTVSGGSISSGGYYWSWIRQHPGKGLEWIGYIYYSGNTYYNPSLKSRVTISGDTSKNQFSLKLRSVTAADTAVYYCTRGGAARGMDVWGQGTTVTVSSASTKGPSVFPLAPCSRSTSESTAALGCLVKDYFPEPVTVSWNSGALTSGVHTFPAVLQSSGLYSLKSVVTVPSSNFGTQTYTCNVDHKPSNTKVDKTVERKCCVECPPCPAPPVAGPSVFLFPPKPKDTLMISRTPEVTCVVVDVSHEDPEVQFNWYVDGVEVHNAKTKPREEQFNSTFRVVSVLTVVHQDWLNGKEYKCKVSNKGLPAPIEKTISKTKGQPREPQVYTLPPSREEMTKNQVSLTCLVDGFYPSDIAVEWESNGQPENNYDTTPPMLDSDGSFFLYSDLTVDKSRWQQGNVFSCSVMHEALHNHYTQKSLSLSPGK
# light 2: not shown
# heavy 2: not shown
# B2: iPS:326651 (bispecific antibody, human IgG2, kappa, lambda)
# light 1: not shown
# heavy 1: B1 heavy 1
# light 2: not shown
# heavy 2: not shown
# B3: iPS:328031 (bispecific antibody, human IgG1, kappa, N297G)
# light 1: DIQMTQSPSSLSASVGDRITITCRASQSISRYLNWYQQKPGKAPKLLIYAASSLQSGIPSRFSGSGSGTDFTLTINSLQPEDFATYFCQQSYSPPFTFGQGTKVDIKRTVAAPSVFIFPPSDEQLKSGTASVVCLLNNFYPREAKVQWKVDNALQSGNSQESVTEQDSKDSTYSLESTLTLSKADYEKHKVYACEVTHQGLSSPVTKSFNRGEC
# heavy 1: not shown
# light 2: EIVLTQSPGTLSLSPGERATLSCRASQSVSSGYLTWYQQKPGQAPRLLIYGASSRATGIPDRFSGSGSGTDFTLTISRLEPEDFAVYYCQQYGNSLSRFGQGTKLEIKRTVAAPSVFIFPPSDEQLKSGTASVVCLLNNFYPREAKVQWKVDNALQSGNSQESVTEQDSKDSTYSLKSTLTLSKADYEKHKVYACEVTHQGLSSPVTKSFNRGEC
# heavy 2: not shown
# B4: iPS:328034 (bispecific antibody, human IgG1, kappa, N297G)
# light 1: not shown
# heavy 1: not shown
# light 2: B3 light 2 with Q101K
# heavy 2: not shown
# B5: iPS:328033 (bispecific antibody, human IgG1, kappa, N297G)
# light 1: not shown
# heavy 1: not shown
# light 2: B3 light 2
# heavy 2: not shown
# B6: iPS:327895 (bispecific antibody, human IgG1, kappa, lambda, N297G)
# light 1: not shown
# heavy 1: not shown
# light 2: QSVLTQPPSVSAAPGQKVTISCSGSSSNIGNNYVSWYQQLPGTAPKLLIYDNNKRPSGIPDRFSGSKSGTSATLGITGLQTGDEADYYCGTWDSRLSAVVFGKGTKLTVLGQPKANPTVTLFPPSSEELQANKATLVCLISDFYPGAVTVAWKADGSPVKAGVETTKPSKQSNNKYAAKSYLSLTPEQWKSHRSYSCQVTHEGSTVEKTVAPTECS
# heavy 2: QVQLVESGGGVVQPGRSLRLSCAASGFTFSSFGMHWVRQAPGKELEWVAVISFDGSIKYSVDSVKGRFTISRDNSKNTLFLQMNSLRAEDTAVYYCARDRLNYYESSGYYHYKYYGMAVWGQGTTVTVSSASTKGPSVFPLAPSSKSTSGGTAALGCLVKDYFPEPVTVSWNSGALTSGVHTFPAVLQSSGLYSLESVVTVPSSSLGTQTYICNVNHKPSNTKVDKKVEPKSCDKTHTCPPCPAPELLGGPSVFLFPPKPKDTLMISRTPEVTCVVVDVSHEDPEVKFNWYVDGVEVHNAKTKPCEEQYGSTYRCVSVLTVLHQDWLNGKEYKCKVSNKALPAPIEKTISKAKGQPREPQVYTLPPSRKEMTKNQVSLTCLVKGFYPSDIAVEWESNGQPENNYKTTPPVLKSDGSFFLYSKLTVDKSRWQQGNVFSCSVMHEALHNHYTQKSLSLSPGK
# B7: iPS:327896 (bispecific antibody, human IgG1, kappa, lambda, N297G)
# light 1: B3 light 1
# heavy 1: not shown
# light 2: B6 light 2 with K103G
# heavy 2: B6 heavy 2 with E44G, E370K
# B8: iPS:327890 (bispecific antibody, human IgG1, kappa, lambda, N297G)
# light 1: not shown
# heavy 1: not shown
# light 2: B6 light 2 with G75A
# heavy 2: B6 heavy 2 with E105D
# B9: iPS:327889 (bispecific antibody, human IgG1, kappa, lambda, N297G)
# light 1: not shown
# heavy 1: not shown
# light 2: B6 light 2 with G75A, K103G
# heavy 2: B6 heavy 2 with E44G, E105D
# B10: iPS:327888 (bispecific antibody, human IgG1, kappa, lambda, N297G)
# light 1: B3 light 1
# heavy 1: not shown
# light 2: B6 light 2 with G75A, K103G
# heavy 2: B6 heavy 2 with E44G, E105D
# B11: iPS:327886 (bispecific antibody, human IgG1, kappa, lambda, N297G)
# light 1: B3 light 1
# heavy 1: not shown
# light 2: B6 light 2 with K103G
# heavy 2: B6 heavy 2 with E44G, E105D, E370K
# B12: iPS:327887 (bispecific antibody, human IgG1, kappa, lambda, N297G)
# light 1: not shown
# heavy 1: not shown
# light 2: B6 light 2 with K103G
# heavy 2: B6 heavy 2 with E44G, E105D, E370K
# B13: iPS:327897 (bispecific antibody, human IgG1, kappa, lambda, N297G)
# light 1: not shown
# heavy 1: not shown
# light 2: B6 light 2 with K103G
# heavy 2: B6 heavy 2 with E44G, E370K
# Key:
# [1] = target: T1, human PAC1 receptor; experiment: cell-based or functional assay
# [2] = target: human CGRP receptor (human, UniProt Q16602 23-461; O60894 27-148); experiment: cell-based or functional assay
# Chain of human CGRP receptor (Q16602 23-461 limits assumed, chain 1 of 2): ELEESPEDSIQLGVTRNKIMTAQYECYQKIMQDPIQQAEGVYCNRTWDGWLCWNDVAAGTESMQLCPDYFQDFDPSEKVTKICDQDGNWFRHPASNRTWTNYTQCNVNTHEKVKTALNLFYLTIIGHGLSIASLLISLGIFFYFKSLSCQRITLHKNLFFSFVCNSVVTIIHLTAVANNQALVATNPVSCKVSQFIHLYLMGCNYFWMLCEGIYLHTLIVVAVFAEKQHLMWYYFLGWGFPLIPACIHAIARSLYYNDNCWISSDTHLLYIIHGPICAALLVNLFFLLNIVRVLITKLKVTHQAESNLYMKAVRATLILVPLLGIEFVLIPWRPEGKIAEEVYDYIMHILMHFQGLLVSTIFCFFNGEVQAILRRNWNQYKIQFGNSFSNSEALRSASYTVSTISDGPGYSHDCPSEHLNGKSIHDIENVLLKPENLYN
# Chain of human CGRP receptor (O60894 27-148 limits assumed, chain 2 of 2): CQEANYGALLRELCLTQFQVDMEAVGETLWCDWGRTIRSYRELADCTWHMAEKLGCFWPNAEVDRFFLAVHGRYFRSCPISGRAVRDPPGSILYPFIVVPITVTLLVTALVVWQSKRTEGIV
Binder,% inhibition of human PAC1 [1] [%],% inhibition of human CGRPR [2] [%]
B1,59,67
B2,23,66
B3,27,75
B4,9,86
B5,20,82
B6,15,80
B7,28,87
B8,15,94
B9,9,83
B10,56,83
B11,65,72
B12,35,87
B13,12,80

# Source: patent US20170306033A1 (Amgen, published 2017)
